According to patent publication US20230190867A1, “METHODS OF TREATING NASH AND COMPOSITIONS THEREFORE” (BIOINCEPT, LLC, priority 2018, published 2023):

Columns and labels:
[1] = molecular target: Enoyl-CoA hydratase domain-containing protein 2, mitochondrial (Homo sapiens) (UniProt Q86YB7); experiment: PIF-agarose affinity extraction of normal human liver lysate 1, LC-MS/MS
Vimentin (Homo sapiens) [2] = molecular target: Vimentin (Homo sapiens) (UniProt P08670); experiment: as above
[3] = molecular target: Parathymosin (Homo sapiens) (UniProt P20962); experiment: as above
Chain of Parathymosin (Homo sapiens) (P20962 2-102 limits assumed): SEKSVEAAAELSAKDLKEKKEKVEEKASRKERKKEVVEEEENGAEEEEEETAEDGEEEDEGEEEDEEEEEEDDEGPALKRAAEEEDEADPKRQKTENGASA

[4] = molecular target: Protein disulfide-isomerase A3 (Homo sapiens) (UniProt P30101); experiment: as above
Chain of Protein disulfide-isomerase A3 (Homo sapiens) (P30101 25-505 limits assumed): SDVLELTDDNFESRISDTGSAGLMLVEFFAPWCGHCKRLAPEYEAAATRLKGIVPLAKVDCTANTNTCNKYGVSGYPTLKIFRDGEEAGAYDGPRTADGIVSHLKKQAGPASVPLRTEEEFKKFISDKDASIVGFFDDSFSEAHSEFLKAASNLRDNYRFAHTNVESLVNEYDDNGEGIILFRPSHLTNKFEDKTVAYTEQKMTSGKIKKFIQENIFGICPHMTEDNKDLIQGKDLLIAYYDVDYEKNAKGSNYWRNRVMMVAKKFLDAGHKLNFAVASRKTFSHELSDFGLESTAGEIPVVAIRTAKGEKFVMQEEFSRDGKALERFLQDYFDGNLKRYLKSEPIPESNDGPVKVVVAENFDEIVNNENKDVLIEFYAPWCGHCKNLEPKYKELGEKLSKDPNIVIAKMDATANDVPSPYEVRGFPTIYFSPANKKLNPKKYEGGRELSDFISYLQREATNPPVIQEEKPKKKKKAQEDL

[5] = molecular target: Peroxiredoxin-1 (Homo sapiens) (UniProt Q06830); experiment: as above
Chain of Peroxiredoxin-1 (Homo sapiens) (Q06830 2-199 limits assumed): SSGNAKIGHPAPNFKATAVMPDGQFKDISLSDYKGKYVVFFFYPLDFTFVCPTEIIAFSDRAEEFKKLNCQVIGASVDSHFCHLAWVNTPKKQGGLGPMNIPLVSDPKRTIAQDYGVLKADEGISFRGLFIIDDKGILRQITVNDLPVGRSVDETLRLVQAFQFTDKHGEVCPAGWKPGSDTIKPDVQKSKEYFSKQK

[6] = molecular target: Alcohol dehydrogenase 1B (Homo sapiens) (UniProt P00325); experiment: as above
Chain of Alcohol dehydrogenase 1B (Homo sapiens) (P00325 2-375 limits assumed): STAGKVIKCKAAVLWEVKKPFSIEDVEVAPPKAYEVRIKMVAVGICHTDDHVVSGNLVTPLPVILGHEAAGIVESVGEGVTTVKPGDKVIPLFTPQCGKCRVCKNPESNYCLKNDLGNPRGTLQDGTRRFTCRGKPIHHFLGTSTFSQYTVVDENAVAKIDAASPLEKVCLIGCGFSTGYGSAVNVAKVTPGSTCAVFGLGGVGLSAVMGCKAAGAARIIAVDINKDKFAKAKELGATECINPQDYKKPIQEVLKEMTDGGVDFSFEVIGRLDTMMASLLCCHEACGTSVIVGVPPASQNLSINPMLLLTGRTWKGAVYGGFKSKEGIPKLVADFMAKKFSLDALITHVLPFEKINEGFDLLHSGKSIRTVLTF

[7] = molecular target: Hepatoma-derived growth factor (Homo sapiens) (UniProt P51858); experiment: as above
Chain of Hepatoma-derived growth factor (Homo sapiens) (P51858 whole entry): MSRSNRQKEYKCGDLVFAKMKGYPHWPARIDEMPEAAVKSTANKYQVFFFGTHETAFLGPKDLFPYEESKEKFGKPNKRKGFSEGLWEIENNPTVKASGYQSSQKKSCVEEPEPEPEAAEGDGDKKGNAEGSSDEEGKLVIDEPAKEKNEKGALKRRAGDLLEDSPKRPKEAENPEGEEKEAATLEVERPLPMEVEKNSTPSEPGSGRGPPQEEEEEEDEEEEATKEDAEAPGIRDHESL

[8] = molecular target: Alcohol dehydrogenase 1A (Homo sapiens) (UniProt P07327); experiment: as above
Chain of Alcohol dehydrogenase 1A (Homo sapiens) (P07327 2-375 limits assumed): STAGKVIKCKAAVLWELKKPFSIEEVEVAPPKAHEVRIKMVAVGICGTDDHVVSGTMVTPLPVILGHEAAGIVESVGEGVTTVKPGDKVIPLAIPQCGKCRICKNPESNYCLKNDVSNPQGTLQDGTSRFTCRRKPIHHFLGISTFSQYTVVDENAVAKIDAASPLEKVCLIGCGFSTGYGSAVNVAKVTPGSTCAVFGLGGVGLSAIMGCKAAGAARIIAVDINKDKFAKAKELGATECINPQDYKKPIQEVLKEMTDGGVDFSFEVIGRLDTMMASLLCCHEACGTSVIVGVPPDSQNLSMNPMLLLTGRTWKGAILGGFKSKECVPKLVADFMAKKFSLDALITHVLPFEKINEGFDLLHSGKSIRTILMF

[9] = molecular target: 14-3-3 protein epsilon (Homo sapiens) (UniProt P62258); experiment: as above
Chain of 14-3-3 protein epsilon (Homo sapiens) (P62258 whole entry): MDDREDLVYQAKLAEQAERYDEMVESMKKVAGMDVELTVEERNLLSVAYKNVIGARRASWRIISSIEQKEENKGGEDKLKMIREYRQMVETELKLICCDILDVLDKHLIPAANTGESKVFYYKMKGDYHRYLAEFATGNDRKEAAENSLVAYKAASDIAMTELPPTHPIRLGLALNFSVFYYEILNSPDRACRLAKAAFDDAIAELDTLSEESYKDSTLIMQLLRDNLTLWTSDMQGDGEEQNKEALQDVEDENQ

[10] = molecular target: Endoplasmin (Homo sapiens) (UniProt P14625); experiment: as above
Chain of Endoplasmin (Homo sapiens) (P14625 22-803 limits assumed): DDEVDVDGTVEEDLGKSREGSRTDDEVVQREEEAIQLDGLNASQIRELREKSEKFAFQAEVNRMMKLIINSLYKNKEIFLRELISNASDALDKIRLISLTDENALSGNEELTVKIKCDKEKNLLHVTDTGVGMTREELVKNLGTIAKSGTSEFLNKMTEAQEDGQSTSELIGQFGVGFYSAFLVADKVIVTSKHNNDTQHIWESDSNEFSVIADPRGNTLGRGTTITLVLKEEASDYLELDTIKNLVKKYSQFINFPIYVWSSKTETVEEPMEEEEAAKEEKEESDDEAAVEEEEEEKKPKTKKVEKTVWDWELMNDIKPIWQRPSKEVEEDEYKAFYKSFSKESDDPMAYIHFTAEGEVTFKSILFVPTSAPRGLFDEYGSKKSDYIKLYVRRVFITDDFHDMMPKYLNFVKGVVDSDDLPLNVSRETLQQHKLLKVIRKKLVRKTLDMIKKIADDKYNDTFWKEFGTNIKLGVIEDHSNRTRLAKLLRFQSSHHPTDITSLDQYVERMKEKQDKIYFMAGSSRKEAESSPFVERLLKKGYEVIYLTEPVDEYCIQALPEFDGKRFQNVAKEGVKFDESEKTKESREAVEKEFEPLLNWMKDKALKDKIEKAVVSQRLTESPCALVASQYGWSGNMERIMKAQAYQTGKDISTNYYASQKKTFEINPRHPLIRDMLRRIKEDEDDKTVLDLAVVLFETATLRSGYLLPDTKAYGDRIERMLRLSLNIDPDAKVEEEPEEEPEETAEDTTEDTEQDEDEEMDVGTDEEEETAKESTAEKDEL

[11] = molecular target: 78 kDa glucose-regulated protein (Homo sapiens) (UniProt P11021); experiment: as above
Chain of 78 kDa glucose-regulated protein (Homo sapiens) (P11021 19-654 limits assumed): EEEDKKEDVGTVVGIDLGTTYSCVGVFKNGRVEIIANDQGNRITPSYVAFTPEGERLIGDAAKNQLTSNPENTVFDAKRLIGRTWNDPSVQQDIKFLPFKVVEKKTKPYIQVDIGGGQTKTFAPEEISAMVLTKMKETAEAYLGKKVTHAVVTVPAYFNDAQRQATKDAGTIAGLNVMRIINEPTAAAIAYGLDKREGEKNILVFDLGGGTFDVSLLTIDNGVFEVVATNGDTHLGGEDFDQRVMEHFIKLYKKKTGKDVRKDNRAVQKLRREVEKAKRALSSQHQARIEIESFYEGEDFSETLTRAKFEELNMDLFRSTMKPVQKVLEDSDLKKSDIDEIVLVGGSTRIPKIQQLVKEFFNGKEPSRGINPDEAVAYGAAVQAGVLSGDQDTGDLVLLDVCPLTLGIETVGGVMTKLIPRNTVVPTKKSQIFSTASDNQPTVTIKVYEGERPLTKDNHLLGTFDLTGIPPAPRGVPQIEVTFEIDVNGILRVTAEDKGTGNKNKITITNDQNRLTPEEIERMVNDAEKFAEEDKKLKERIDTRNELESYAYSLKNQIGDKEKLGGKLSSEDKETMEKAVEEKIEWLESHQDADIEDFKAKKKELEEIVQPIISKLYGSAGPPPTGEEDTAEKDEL

[12] = molecular target: Delta-aminolevulinic acid dehydratase (Homo sapiens) (UniProt P13716); experiment: as above
Chain of Delta-aminolevulinic acid dehydratase (Homo sapiens) (P13716 whole entry, stated change not applied): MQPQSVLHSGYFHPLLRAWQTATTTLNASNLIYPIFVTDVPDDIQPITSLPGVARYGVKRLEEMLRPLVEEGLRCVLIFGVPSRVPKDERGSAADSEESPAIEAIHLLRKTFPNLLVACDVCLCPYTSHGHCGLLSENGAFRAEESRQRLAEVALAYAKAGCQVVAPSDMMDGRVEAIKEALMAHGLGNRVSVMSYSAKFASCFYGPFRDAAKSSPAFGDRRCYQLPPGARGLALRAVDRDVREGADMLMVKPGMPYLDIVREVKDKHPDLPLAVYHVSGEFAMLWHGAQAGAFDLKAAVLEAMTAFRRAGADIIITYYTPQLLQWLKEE

[13] = molecular target: Calmodulin (Homo sapiens) (UniProt P0DP23); experiment: as above
[14] = molecular target: Protein disulfide-isomerase A4 (Homo sapiens) (UniProt P13667); experiment: PIF-agarose affinity extraction of normal human liver lysate 2, LC-MS/MS
[15] = molecular target: Enoyl-CoA hydratase domain-containing protein 2, mitochondrial (Homo sapiens) (UniProt Q86YB7); experiment: as above
Vimentin (Homo sapiens) [16] = molecular target: Vimentin (Homo sapiens) (UniProt P08670); experiment: as above
[17] = molecular target: Parathymosin (Homo sapiens) (UniProt P20962); experiment: as above
[18] = molecular target: Protein disulfide-isomerase A3 (Homo sapiens) (UniProt P30101); experiment: as above
[19] = molecular target: Protein disulfide-isomerase (Homo sapiens) (UniProt P07237); experiment: as above
[20] = molecular target: Peroxiredoxin-1 (Homo sapiens) (UniProt Q06830); experiment: as above
[21] = molecular target: Calreticulin (Homo sapiens) (UniProt P27797); experiment: as above
[22] = molecular target: Alcohol dehydrogenase 1B (Homo sapiens) (UniProt P00325); experiment: as above
[23] = molecular target: Hepatoma-derived growth factor (Homo sapiens) (UniProt P51858); experiment: as above
[24] = molecular target: Transitional endoplasmic reticulum ATPase (Homo sapiens) (UniProt P55072); experiment: as above
[25] = molecular target: Alcohol dehydrogenase 4 (Homo sapiens) (UniProt P08319); experiment: as above
Chain of Alcohol dehydrogenase 4 (Homo sapiens) (P08319 whole entry): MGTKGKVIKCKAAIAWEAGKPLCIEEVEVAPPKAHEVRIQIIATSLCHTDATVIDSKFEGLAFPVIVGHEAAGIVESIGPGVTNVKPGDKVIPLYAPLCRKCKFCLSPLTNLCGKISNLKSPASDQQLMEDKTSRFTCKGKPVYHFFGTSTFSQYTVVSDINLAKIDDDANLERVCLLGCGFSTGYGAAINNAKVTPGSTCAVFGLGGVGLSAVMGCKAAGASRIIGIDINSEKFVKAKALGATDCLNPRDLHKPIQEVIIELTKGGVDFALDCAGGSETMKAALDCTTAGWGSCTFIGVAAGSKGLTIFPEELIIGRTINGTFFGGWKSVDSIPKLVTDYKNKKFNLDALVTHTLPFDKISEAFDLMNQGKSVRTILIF

[26] = molecular target: Membrane-associated progesterone receptor component 1 (Homo sapiens) (UniProt O00264); experiment: as above
[27] = molecular target: Tropomyosin alpha-4 chain (Homo sapiens) (UniProt P67936); experiment: as above
[28] = molecular target: Alcohol dehydrogenase 1A (Homo sapiens) (UniProt P07327); experiment: as above
[29] = molecular target: 14-3-3 protein epsilon (Homo sapiens) (UniProt P62258); experiment: as above
[30] = molecular target: Activated RNA polymerase II transcriptional coactivator p15 (Homo sapiens) (UniProt P53999); experiment: as above
[31] = molecular target: Cytochrome b5 (Homo sapiens) (UniProt P00167); experiment: as above
[32] = molecular target: Endoplasmin (Homo sapiens) (UniProt P14625); experiment: as above
[33] = molecular target: Cytosolic 10-formyltetrahydrofolate dehydrogenase (Homo sapiens) (UniProt O75891); experiment: as above
[34] = molecular target: 78 kDa glucose-regulated protein (Homo sapiens) (UniProt P11021); experiment: as above
[35] = molecular target: Alpha-actinin-4 (Homo sapiens) (UniProt O43707); experiment: as above
[36] = molecular target: Cytochrome b-c1 complex subunit 6, mitochondrial (Homo sapiens) (UniProt P07919); experiment: as above
[37] = molecular target: Delta-aminolevulinic acid dehydratase (Homo sapiens) (UniProt P13716); experiment: as above
[38] = molecular target: Calmodulin (Homo sapiens) (UniProt P0DP23); experiment: as above

Chain of Vimentin (Homo sapiens) (P08670 2-466 limits assumed): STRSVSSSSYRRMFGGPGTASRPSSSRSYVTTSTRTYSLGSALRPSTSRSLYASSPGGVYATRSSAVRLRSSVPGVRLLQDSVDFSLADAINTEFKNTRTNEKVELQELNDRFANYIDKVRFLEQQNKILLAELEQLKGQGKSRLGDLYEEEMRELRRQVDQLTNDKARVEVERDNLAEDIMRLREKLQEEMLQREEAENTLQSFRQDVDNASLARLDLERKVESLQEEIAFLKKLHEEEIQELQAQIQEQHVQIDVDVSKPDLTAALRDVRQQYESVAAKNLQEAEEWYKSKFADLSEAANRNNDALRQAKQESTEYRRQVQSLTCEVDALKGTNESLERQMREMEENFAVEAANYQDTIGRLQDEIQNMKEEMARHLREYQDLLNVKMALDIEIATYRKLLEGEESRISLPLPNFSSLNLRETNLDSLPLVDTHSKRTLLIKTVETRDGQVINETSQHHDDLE
Chain of Enoyl-CoA hydratase domain-containing protein 2, mitochondrial (Homo sapiens) (Q86YB7 36-292 limits assumed): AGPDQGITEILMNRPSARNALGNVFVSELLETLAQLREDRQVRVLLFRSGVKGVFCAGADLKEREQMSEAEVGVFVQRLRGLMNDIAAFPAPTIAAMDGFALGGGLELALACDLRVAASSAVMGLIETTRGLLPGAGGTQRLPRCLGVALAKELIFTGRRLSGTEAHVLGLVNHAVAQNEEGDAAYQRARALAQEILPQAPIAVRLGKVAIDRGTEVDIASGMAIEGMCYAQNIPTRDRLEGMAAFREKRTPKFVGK

sPIF-1(15) (peptide) showed a % Coverage of the unique peptides observed [1] of 45%, a % Coverage of the unique peptides observed (Vimentin (Homo sapiens) [2]) of 50% and a % Coverage of the unique peptides observed [3] of 58%. It also gave a % Coverage of the unique peptides observed [4] of 45%, a % Coverage of the unique peptides observed [5] of 57% and a % Coverage of the unique peptides observed [6] of 47%. For the same substance, the % Coverage of the unique peptides observed [7] was 60%, the % Coverage of the unique peptides observed [8] was 48% and the % Coverage of the unique peptides observed [9] was 78%. The % Coverage of the unique peptides observed [10] was 47%, the % Coverage of the unique peptides observed [11] was 55% and the % Coverage of the unique peptides observed [12] was 47%. It also gave a % Coverage of the unique peptides observed [13] of 46%, a % Coverage of the unique peptides observed [14] of 52% and a % Coverage of the unique peptides observed [15] of 42%. The % Coverage of the unique peptides observed (Vimentin (Homo sapiens) [16]) was 49%, the % Coverage of the unique peptides observed [17] was 48% and the % Coverage of the unique peptides observed [18] was 44%. For the same substance, the % Coverage of the unique peptides observed [19] was 76%, the % Coverage of the unique peptides observed [20] was 58% and the % Coverage of the unique peptides observed [21] was 69%. The % Coverage of the unique peptides observed [22] was 54%, the % Coverage of the unique peptides observed [23] was 56% and the % Coverage of the unique peptides observed [24] was 51%. It also gave a % Coverage of the unique peptides observed [25] of 52%, a % Coverage of the unique peptides observed [26] of 46% and a % Coverage of the unique peptides observed [27] of 48%. It also gave a % Coverage of the unique peptides observed [28] of 53%, a % Coverage of the unique peptides observed [29] of 71% and a % Coverage of the unique peptides observed [30] of 44%. For the same substance, the % Coverage of the unique peptides observed [31] was 56%, the % Coverage of the unique peptides observed [32] was 45% and the % Coverage of the unique peptides observed [33] was 34%. For the same substance, the % Coverage of the unique peptides observed [34] was 51%, the % Coverage of the unique peptides observed [35] was 45% and the % Coverage of the unique peptides observed [36] was 53%. The % Coverage of the unique peptides observed [37] was 49% and the % Coverage of the unique peptides observed [38] was 46%.
